Data on ten variants can be found in paper PMC4899871 (2016).

Sequences and labels used below:
B1: GST-HA-ATG16L1-231–607 T300, purified from human cells [human] / TMEM59 263–281 peptide, wild type (19-amino acid peptide that includes the ATG16L1-binding motif) [modified: Immobilised through the N-terminus by a long spacer (Tds). Some … (parent complex)
chain 1: PLPVEQDDDIEVIVDETSDHTEETSPVRAISRAATKRLSQPAGGLLDSITNIFGRRSVSSFPVPQDNVDTHPGSGKEVRVPATALCVFDAHDGEVNAVQFSPGSRLLATGGMDRRVKLWEVFGEKCEFKGSLSGSNAGITSIEFDSAGSYLLAASNDFASRIWTVDDYRLRHTLTGHSGKVLSAKFLLDNARIVSGSHDRTLKLWDLRSKVCIKTVFAGSSCNDIVCTEQCVMSGHFDKKIRFWDIRSESIVREMELLGKITALDLNPERTELLSCSRDDLLKVIDLRTNAIKQTFSAPGFKCGSDWTRVVFSPDGSYVAAGSAEGSLYIWSVLTGKVEKVLSKQHSSSINAVAWSPSGSHVVSVDKGCKAVLWAQY
chain 2: TAVEQYVPSEKLSIYGDLE
B2: GST-HA-ATG16L1-320–607 (recombinant WD40 domain fused to GST and the HA tag) [human] / TMEM59 263–281 peptide, wild type (19-amino acid peptide that includes the ATG16L1-binding motif) [modified: Immobilised through the N-terminus by a … (parent complex)
chain 1: AHDGEVNAVQFSPGSRLLATGGMDRRVKLWEVFGEKCEFKGSLSGSNAGITSIEFDSAGSYLLAASNDFASRIWTVDDYRLRHTLTGHSGKVLSAKFLLDNARIVSGSHDRTLKLWDLRSKVCIKTVFAGSSCNDIVCTEQCVMSGHFDKKIRFWDIRSESIVREMELLGKITALDLNPERTELLSCSRDDLLKVIDLRTNAIKQTFSAPGFKCGSDWTRVVFSPDGSYVAAGSAEGSLYIWSVLTGKVEKVLSKQHSSSINAVAWSPSGSHVVSVDKGCKAVLWAQY
chain 2: TAVEQYVPSEKLSIYGDLE

The first assay covers variants of B1. The assay is described as follows: peptide microarray; probe purified from human cells; mean ± s.d., n=9 replicas; parent: 100; read off a plot.
Take chain 2 V7A: the percent of parent was ~140 % of WT peptide (OD635, normalized values). The same measure, in the same setting: to chain 2 Y15A belongs ~10 % of WT peptide (OD635, normalized values). Same read-out and setting: with chain 2 E10A the figure was ~130 % of WT peptide (OD635, normalized values). Take chain 2 K11A: the percent of parent was ~96 % of WT peptide (OD635, normalized values). Same read-out and setting: to chain 2 Y6A, chain 2 E10A, chain 2 Y15A, chain 2 L18A belongs ~3 % of WT peptide (OD635, normalized values); to chain 2 Y6A, ~45 % of WT peptide (OD635, normalized values); to chain 2 G16A, ~160 % of WT peptide (OD635, normalized values). The same measure, in the same setting: to chain 2 L18A belongs ~19 % of WT peptide (OD635, normalized values).

The variants in another assay derive from B1. Kind of assay: peptide microarray; probes purified from human cells; mean ± s.d., n=54; values normalised to the A300 ligand (= 100); parent: 160; read off a plot.
For the variant chain 1 T70A, the response was ~100 OD635, normalized values (% of the A300 ligand signal).

Variants of B1 are the subject of another assay. The assay is described as follows: peptide microarray; probe purified from human cells; mean ± s.d., n=9 replicas; parent: 9.3e+03; read off a plot.
chain 2 Y6A, chain 2 E10A, chain 2 Y15A, chain 2 L18A: the response was ~400 a.u. (OD635).

The variants in another assay derive from B2. The assay is described as follows: peptide microarray; probe expressed in bacteria; mean ± s.d., n=9 replicas; parent: 100; read off a plot.
On to chain 2 Y6A, chain 2 E10A, chain 2 Y15A, chain 2 L18A, for which the percent of parent is ~2.5 % of WT peptide (OD635, normalized values).
